Data on four molecules can be found in article PMC2855162 (Molecular cell, 2010).

To fix the notation:
T1: His-Smt3-TRAF1 (human)
T1 sequence (Q13077 whole entry, looked up): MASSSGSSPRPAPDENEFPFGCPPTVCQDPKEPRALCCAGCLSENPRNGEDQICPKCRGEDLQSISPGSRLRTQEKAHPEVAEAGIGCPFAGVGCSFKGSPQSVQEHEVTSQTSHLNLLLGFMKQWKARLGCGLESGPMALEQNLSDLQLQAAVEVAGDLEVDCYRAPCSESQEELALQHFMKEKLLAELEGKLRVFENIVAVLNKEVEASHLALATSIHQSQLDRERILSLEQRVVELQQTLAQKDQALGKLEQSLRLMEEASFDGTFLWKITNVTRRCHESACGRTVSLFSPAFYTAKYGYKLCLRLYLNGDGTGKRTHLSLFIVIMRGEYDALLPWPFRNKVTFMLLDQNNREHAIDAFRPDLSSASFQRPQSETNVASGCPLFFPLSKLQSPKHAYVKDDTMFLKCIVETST

T2: TRAF2 construct containing residues 266-329 (human, UniProt Q12933 266-329)
T2 sequence (looked up): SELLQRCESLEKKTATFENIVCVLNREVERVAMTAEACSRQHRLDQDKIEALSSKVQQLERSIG

B1: His-TRAF2 (domain or fragment, human)
chain: SELLQRCESLEKKTATFENIVCVLNREVERVAMTAEACSRQHRLDQDKIEALSSKVQQLERSIGL
B2: cIAP2 BIR1 domain (residues 26-99), non-tagged (domain or fragment, human, UniProt Q13489 26-99, looked up)
chain: LSCELYRMSTYSTFPAGVPVSERSLARAGFYYTGVNDKVKCFCCGLMLDNWKRGDSPTEKHKKLYPSCRFVQSL
B3: untagged TRAF1 (co-expressed with His-tagged TRAF2 and cIAP2) (domain or fragment, human)
chain: FMKEKLLAELEGKLRVFENIVAVLNKEVEASHLALATSIHQSQLDRERILSLEQRVVELQQTLA

For one data set, the target named is T1, His-Smt3-TRAF1 (human). Put plainly: SEC-MALS. Background: SEC sorts molecules by how far they enter the pores of the column.
The data set “SEC-MALS” concerns the molecule itself. Put plainly: SEC-MALS.
Data set [1] addresses T2, TRAF2 construct containing residues …. Put plainly: SEC-MALS.
The target of the data set “His-TRAF2” is B1. Put plainly: pull-down.

For the molecule His-Smt3-TRAF1 (domain or fragment), the stoichiometry N (as a rule, a count of units in the complex or per binding partner) in the data set with His-Smt3-TRAF1 (human) was 3. For the molecule B1, in the data set with His-Smt3-TRAF1 (human), the stoichiometry N (TRAF2 per TRAF1) worked out at 2. The “stoichiometry N” value in the data set “SEC-MALS” was determined as 3. Regarding B2, in data set [1], the “stoichiometry N” value is 3 TRAF2 molecules per cIAP2 BIR1 molecule. Regarding B3, the “stoichiometry N” value in the data set with His-TRAF2 is ~2 TRAF2 per TRAF1.
